Test results published in paper PMC8349882 (Molecular cell, 2021).

Target: the molecule itself
Assay: crystal structure

B1: GLR3.4-S1S2 (isolated ligand-binding domain of GLR3.4) (domain or fragment, Arabidopsis thaliana)
chain: KPLRIGVPNRVSYTDYVSKDKNPPGVRGYCIDVFEAAIELLPYPVPRTYILYGDGKRNPSYDNLVNEVVADNFDVAVGDITIVTNRTRYVDFTQPFIESGLVVVAPVKEAGTIEGIDSLVTSNEPIGVQDGTFARNYLINELNILPSRIVPLKDEEQYLSALQRGPNAGGVAAIVDELPYIEVLLTNSNCKFRTVGQEFTRTGWGFAFQRDSPLAVDMSTAILQLSEEGELEKIHRKWLNYKHECS
  stoichiometry N: 2
